# According to patent US20070066551, “Aptamer medicinal chemistry” (published 2007):
# B1: ARC1368 (mixed)
# mixed: GCGUGCAGUGCCUUCGGCCGTGCGGTGCCUCCGUCACGC
# modifications: as ARC1361 plus PS between 20 and 21 (as printed, mG-s-T); 3'-idT (last t of SEQ)
# Legend:
# Details in all cases: label: 5'-32P
# [1] = biological target: T1, von Willebrand Factor (vWF) (UniProt P04275 P04275:764-2813); assay: filter; DPBS with Ca/Mg, 0.1 mg/mL BSA, 24 C
# Description: (§1) A three-layer filtration medium was used, consisting (from bottom to top) of Protran nitrocellulose (Schleicher & Schuell), Hybond-P nylon (Amersham Biosciences) and GB002 gel blot paper (Schleicher & Schuell). RNA that is bound to protein is captured on the nitrocellulose filter, whereas the non-protein bound RNA is captured on the nylon filter. The gel blot paper was included simply as a supporting medium for the other filters. Following filtration, the filter layers were separated, dried and exposed on a phosphor screen (Amersham Biosciences, Piscataway, N.J.) and quantified using a Storm 860 Phosphorimager® blot imaging system (Amersham Biosciences).
# A set of ARC1172 (SEQ ID NO 3) derivative aptamers introducing single phosphorothioate substitutions (Glen Research, Sterling, Va.) were chemically synthesized using standard synthesis techniques. In each set of derivatives, single phosphorothioate substitutions were systematically introduced at each internucleotide linkage position resulting in each derivative set having an aptamer with a phosphorothioate substitution at a different internucleotide position. […] KD values for the ARC1172 derivative aptamers were calculated by fitting the equation y=(max/(1+K/protein))+yint using KaleidaGraph (KaleidaGraph v. 3.51, Synergy Software).
# [2] = biological target: T1, von Willebrand Factor (vWF); assay: filter; DPBS with Ca/Mg, 0.1 mg/mL BSA, 24 C; remark: listed apart in the source
# [3] = biological target: T2, IL-23 (full length) (Homo sapiens, UniProt Q9NPF7;P29460 Q9NPF7:20-189,P29460:23-328); assay: filter; PBS without Ca/Mg, 0.1 mg/mL BSA, RT 30 min; 13 nM in DPBS with Ca/Mg (Table 5)
# Description: as §1
# A set of ARC979 (SEQ ID NO 1) derivative aptamers introducing single phosphorothioate substitutions (Glen Research, Sterling, Va.) were chemically synthesized by standard synthesis techniques. In each set of derivatives, single phosphorothioate substitutions were systematically introduced at each internucleotide linkage position resulting in each derivative within one set having an aptamer with a phosphorothioate substitution at a different internucleotide position. These derivatives were gel purified and assayed for IL-23 binding, using the dot blot assay described above under the following binding reaction conditions: 1×PBS (without Ca⁺⁺ or Mg⁺⁺) plus 0.1 mg/mL BSA, for a 30 minute incubation at room temperature. […]
# [4] = biological target: T2, IL-23 (full length); assay: filter; DPBS with Ca/Mg, BSA, RT; parent 3.7 nM
# Description: as §1
# The dot blot binding assay previously described was used to characterize the relative potency of the majority of the aptamers synthesized as compared to the parent molecule, ARC1386. […] KD values were calculated by fitting the equation y=(max/(1+K/protein))+yint using KaleidaGraph (KaleidaGraph v. 3.51, Synergy Software).
# T2 sequence (Q9NPF7 20-189, chain 1 of 2): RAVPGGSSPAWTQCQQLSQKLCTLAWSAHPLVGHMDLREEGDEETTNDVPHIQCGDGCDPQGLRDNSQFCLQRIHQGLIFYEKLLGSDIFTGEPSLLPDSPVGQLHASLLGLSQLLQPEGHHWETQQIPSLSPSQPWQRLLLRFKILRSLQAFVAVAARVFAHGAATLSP
# T2 sequence (P29460 23-328, chain 2 of 2): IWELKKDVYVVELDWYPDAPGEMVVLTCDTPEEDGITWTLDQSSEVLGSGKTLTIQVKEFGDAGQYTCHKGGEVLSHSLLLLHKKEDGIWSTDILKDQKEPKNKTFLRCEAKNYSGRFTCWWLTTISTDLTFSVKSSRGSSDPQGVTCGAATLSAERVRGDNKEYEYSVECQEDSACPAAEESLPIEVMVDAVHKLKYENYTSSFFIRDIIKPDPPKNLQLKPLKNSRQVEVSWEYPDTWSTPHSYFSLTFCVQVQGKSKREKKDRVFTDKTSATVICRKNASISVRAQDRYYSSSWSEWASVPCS
binder,measurement,setting,value
"GGCGTGCAGTGCCTTCGGCCGTGCGGTGCCTCCGTCACGCC (ssDNA, 3'-idT (last t of SEQ)) [ARC1172 w/3T]",Kd,[1],2 nM
"GGCGTGCAGTGCCTTCGGCCGTGCGGTGCCTCCGTCACGCC (ssDNA, 3'-idT as printed in Table 3) [ARC1172]",Kd,[2],2 nM
"ACAGGCAAGUAAUUGGGGAGUGCGGGCGGGGUGU (mixed, 2'-deoxy purines, 2'-OMe pyrimidines (dRmY)) [ARC979]",Kd,[3],90 nM
"ACAGGCAAGUAAUUGGGGAGUGCGGGCGGGGTGU (mixed, dRmY; 2'-deoxy dihydrouridine at 32; 3'-idT (last t of SEQ)) [ARC1713]",Kd,[4],2.2 nM
"ACAGGCAAGTAAUUGGGGAGUGCGGGCGGGGUGU (mixed, dRmY; 2'-deoxy dihydrouridine at 10; 3'-idT (last t of SEQ)) [ARC1709]",Kd,[4],2.8 nM
"GCGUGCAGUGCCUUCGGCCGTGCGGTGCCUCCGUCACGC (mixed, multiple 2'-OMe substitutions as in Table 3; 3'-idT (last t of SEQ)) [ARC1361]",Kd,[2],7.9 nM
B1,Kd,[2],1.8 nM
